This note sets out measurements from patent publication US20100021987.

In the case of “GST fusion of the catalytic domain of the Xanthomonas campestris pathovar vesicatoria protease XopD (GST-XopD)”, the “activity level (grade)” value with 6xHis-AtSUMO2-eGFP was “+/-”; in the series on 6xHis-hSUMO-3-eGFP it was “-”; in the series with 6xHis-hSUMO-1-eGFP, “-”; with 6xHis-T-SUMO-eGFP it was “+/-”; in the series with 6xHis-AtSUMO1-eGFP, “-”; in the series on 6xHis-ySmt3-eGFP, “+/-”.
